In article PMC11587651, “Increased cytoplasmic expression of PETase enzymes in E. coli” (Microbial Cell Factories, 2024):
Substitutions are numbered along the chain they refer to. Names and notes keep the numbering of the source.

Substrate: CC(=O)Oc1ccc([N+](=O)[O-])cc1
Test: purified protein
Type: biochemical, Pseudideonella sakaiensis
Conditions: 100 mM potassium phosphate pH 7, 25 °C, 1-20 mM 4-NPA, acetonitrile from substrate stock

B1: IsPETase (Pseudideonella sakaiensis) (protein)
chain: AQTNPYARGPNPTAASLEASAGPFTVRSFTVSRPSGYGAGTVYYPTNAGGTVGAIAIVPGYTARQSSIKWWGPRLASHGFVVITIDTNSTLDQPSSRSSQQMAALRQVASLNGTSSSPIYGKVDTARMGVMGWSMGGGGSLISAANNPSLKAAAPQAPWDSSTNFSSVTVPTLIFACENDSIAPVNSSALPIYDSMSRNAKQFLEINGGSHSCANSGNSNQALIGKKGVAWMKRFMDNDTRYSTFACENPNSTRVSDFRTANCS
notes: expressed in E. coli SHuffle T7 Express; IMAC purified; monomeric by SEC
Km: 8.16 ± 0.66 mM
kcat: 30.3 ± 1.1 s⁻¹

B2: IsPETase (Pseudideonella sakaiensis; D186H/N233K/R224Q/R280A/S121E) (protein)
chain: B1 chain with S95E, D160H, R198Q, N207K, R254A
notes: as for B1
Km (FAST-PETase): 11.33 ± 1.11 mM
kcat (FAST-PETase): 45.7 ± 2.3 s⁻¹

B3: IsPETase (Pseudideonella sakaiensis; D186H/K252M/K95N/M154G/N212K/N233C/N241C/P181V/Q119K/Q182M/R224L/R280A/R90T/S121E/S207R/S213E/S214Y/S282C/S58A/S61V/T270Q) (protein)
chain: AQTNPYARGPNPTAASLEASAGPFTVRSFTVARPVGYGAGTVYYPTNAGGTVGAIAIVPGYTATQSSINWWGPRLASHGFVVITIDTNSTLDKPESRSSQQMAALRQVASLNGTSSSPIYGKVDTARGGVMGWSMGGGGSLISAANNPSLKAAAVMAPWHSSTNFSSVTVPTLIFACENDRIAPVKEYALPIYDSMSLNAKQFLEICGGSHSCACSGNSNQALIGMKGVAWMKRFMDNDTRYSQFACENPNSTAVCDFRTANCS
notes: as for B1
Km (Hot-PETase): 9.61 ± 0.91 mM
kcat (Hot-PETase): 33.0 ± 1.5 s⁻¹
